Publication PMC10830420

Legend:
[1] = biological target: T1, ORF2p core (human (Homo sapiens), UniProt O00370 238-1061); test: cryo-EM (3.30 A); dTTP, Mg2+; DSF: 20 mM HEPES-KOH pH 7.6, 100 mM NaCl, 1 mM DTT, 2 mM Mg acetate, thermal ramp; crystals: protein 3 mg/mL, 50 mM NaCl dilution, 2 mM MgCl2, 2 mM dTTP, 1.3:1
[2] = biological target: ORF2p-His8 core (human (Homo sapiens), UniProt O00370 238-1061); test: X-ray crystallography (2.1 A); dTTP, Mg2+; DSF: 20 mM HEPES-KOH pH 7.6, 100 mM NaCl, 1 mM DTT, 2 mM Mg acetate, thermal ramp; crystals: protein 3 mg/mL, 50 mM NaCl dilution, 2 mM MgCl2, 2 mM dTTP, 1.3:1
[3] = biological target: T1, ORF2p core; test: cryo-EM (3.66 A); DSF: 20 mM HEPES-KOH pH 7.6, 100 mM NaCl, 1 mM DTT, 2 mM Mg acetate, thermal ramp; crystals: protein 3 mg/mL, 50 mM NaCl dilution, 2 mM MgCl2, 2 mM dTTP, 1.3:1

B1: cryo-EM RNA:DNA hybrid (DNA:RNA)
RNA: GGAGCGAAAUUUUCGC
DNA: GCGAAAATTTCGC
modifications: 3' dideoxy-C on DNA primer
B1: binds [1].

B2: crystallography RNA template:DNA primer hybrid (DNA:RNA)
RNA: UUAGGAAAGCGC
DNA: GCGCTTTCC
modifications: 3' dideoxy-C on DNA primer
B2: binds [2].

B3: oligo-25(A) ssRNA (ssRNA)
RNA: AAAAAAAAAAAAAAAAAAAAAAAAA
B3: binds [3].
